Experiment: Enzyme reactivity to prodrugs before and after attachment to colloidal gold (UV/Vis, NADH oxidation at 340 nm, hydroxylamine formation at 420 nm)
Format: biochemical
Conditions: for Specific activity: CB1954 prodrug, excess NADH, 37° C., bound samples on 20 nm gold colloid at molar ratio 87:1 enzymes:gold; for Retained activity (%): compared to the same concentration of enzyme free in solution, CB1954, molar ratio 87:1 enzymes:gold
Experimental: The ability of the different nitroreductases to metabolise the selected prodrugs is assessed as the conversion of NADH to NAD^+ by UV-vis spectra. The kinetic parameters of the purified enzymes are measured by UV-vis spectra before and after their attachment to gold particles based on their ability to use NADH or an alternative cofactor such as for example nicotinic acid riboside for the reduction of the prodrugs.
For these experiments, a 300 molar equivalents of enzyme were incubated with gold colloid, as this appeared to be the minimum amount of enzyme to cover the gold nanoparticle surface as determined by UV/Vis spectrometry, electrophoresis, and stability experiments. 3.206 nmol of the NfnB and cys-NfnB enzymes in ultra pure water were incubated with 1.5 ml 20 nm Naked Gold® (7.125×10^−3 μM) at a temperature of 4° C. overnight. As controls, the same treatment was carried out for NfnB and cys-NfnB in the absence of gold colloid. The next day the solutions were divided in half and each made up to a total volume of 970 μl using ultra pure water. To each sample, 20 μl of NADH (10 mM) were added and incubated at a temperature of 37° C. for 5 min. The absorbance spectra (750 nm-200 nm) were recorded every 1.5 min for 20 min upon the addition of 10 μl CB 1954 (10 mM) or 20 μl SN 23862 (5 mM) to the test sample, and an equivalent volume of dimethyl sulfoxide (DMSO) to the reference solution. The oxidation of NADH, measured as the decrease at 340 nm, was used as an indication of reactivity of the enzyme for the substrate. The reactivity experiments were done for enzyme: gold conjugate solutions and for enzymes free in solution.
The ability of both recombinant NfnB and cys-NfnB to activate the CB1954 prodrug, before and after attachment to the gold colloid were compared. The free enzyme is known to be active as a dimer in which each monomer is closely associated with a flavin mononucleotide (FMN) molecule, and has two substrate binding pockets as explained in Lovering et al. (Lovering A. L., Hyde E. I., Searle P. F. and White S. A., in Journal of Molecular Biology, 309: 203-213, 2001) or in Zenno et al. (Zenno S, Koike H, Tanokura M and Saigo' K, in Journal of Biochemistry, 120: 736-744, 1996). […]
The formation of hydroxylamine products was monitored at 420 nm using UV/Vis spectroscopy in the presence of enzyme and excess NADH as previously described. […]
It was observed that both the NADH and CB1954 substrates were consumed in the presence of recombinant NfnB, with the simultaneous production of the hydroxylamine product. The same experiment was performed for recombinant NfnB immobilised onto the gold colloid at a molar ratio of 87:1 enzymes to gold, to ensure that any activity measured was not due to excess enzyme free in solution. […]

Molecule | Specific activity | Retained activity (%)
NfnB (unbound): his-tagged wildtype NfnB nitroreductase from Escherichia coli K12, free in solution (protein, UniProt P38489 1-217, looked up, His tag, his-tagged wildtype NfnB nitroreductase from Escherichia coli K12, free in solution) Oxygen-insensitive NAD(P)H …: MDIISVALKRHSTKAFDASKKLTPEQAEQIKTLLQYSPSSTNSQPWHFIVASTEEGKARVAKSAAGNYVFNERKMLDASHVVVFCAKTAMDDVWLKLVVDQEDADGRFATPEAKAANDKGRKFFADMHRKDLHDDAEWMAKQVYLNVGNFLLGVAALGLDAVPIEGFDAAILDAEFGLKEKGYTSLVVVPVGHHSVEDFNATLPKSRLPQNITLTEV | 0.169 µmol/min/mg | 100%
NfnB (bound to gold): recombinant NfnB nitroreductase immobilised onto 20 nm gold colloid (conjugate, UniProt P38489 1-217, looked up, immobilised on gold colloid, recombinant NfnB nitroreductase immobilised onto 20 nm gold colloid) Oxygen-insensitive NAD(P)H …: MDIISVALKRHSTKAFDASKKLTPEQAEQIKTLLQYSPSSTNSQPWHFIVASTEEGKARVAKSAAGNYVFNERKMLDASHVVVFCAKTAMDDVWLKLVVDQEDADGRFATPEAKAANDKGRKFFADMHRKDLHDDAEWMAKQVYLNVGNFLLGVAALGLDAVPIEGFDAAILDAEFGLKEKGYTSLVVVPVGHHSVEDFNATLPKSRLPQNITLTEV | 0.168 µmol/min/mg | 99.5%

From patent US9089613B2, “Drug activation system” (BANGOR UNIVERSITY, priority 2009, dated 2015)
